Measurements as given in the supplement of paper PMC9112550, “Optimization of the antimicrobial peptide Bac7 by deep mutational scanning” (BMC Biology, 2022).

test system: Escherichia coli TOP10; assay: shrunken log2 fold change of peptide-encoding DNA abundance (4.5 h post-induction vs induction); higher = less antimicrobial activity (less host growth inhibition); conditions: time post-induction: 4.5 h; library: site-saturation at positions 5, 18, 19, 20
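Further: peptides expressed intracellularly from a pBAD plasmid library in pooled LB shake-flask culture, induced with 0.3% L-arabinose, DNA abundance read by NGS, three biological replicates, DESeq2 with apeglm shrinkage.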

Point of comparison: RRIRQRPPRLPRPRPRPHSMPRP, “shrunken log2 fold change” value -0.438. Against it:
- RRIRIRPPRLPRPRPRPGLLPRP — higher, -0.0591
- RRIRWRPPRLPRPRPRPVIYPRP — within 0.2 log units, -0.279
- RRIRNRPPRLPRPRPRPHDSPRP — higher, -0.0662
- RRIRGRPPRLPRPRPRPMCPPRP — higher, 0.0883
- RRIRMRPPRLPRPRPRPDMFPRP — higher, 2.25
- RRIRPRPPRLPRPRPRPRQHPRP — higher, 0.182
- RRIRERPPRLPRPRPRPQKTPRP — higher, -0.0465
- RRIRMRPPRLPRPRPRPGGHPRP — higher, 0.516
- RRIRFRPPRLPRPRPRPKQWPRP — higher, 0.133
- RRIRHRPPRLPRPRPRPSQMPRP — higher, 0.0205
- RRIRERPPRLPRPRPRPDLDPRP — higher, -0.0232
- RRIRHRPPRLPRPRPRPYAMPRP — within 0.2 log units, -0.416
- RRIRPRPPRLPRPRPRPHLYPRP — higher, -0.192
- RRIRCRPPRLPRPRPRPILPPRP — within 0.2 log units, -0.287
- RRIRHRPPRLPRPRPRPWLYPRP — higher, -0.217
- RRIRRRPPRLPRPRPRPNFTPRP — higher, 0.205
- RRIRMRPPRLPRPRPRPWSCPRP — higher, -0.0965
- RRIRFRPPRLPRPRPRPFPYPRP — within 0.2 log units, -0.445
- RRIRPRPPRLPRPRPRPRFGPRP — higher, 0.348
- RRIRERPPRLPRPRPRPLYWPRP — within 0.2 log units, -0.383
- RRIRFRPPRLPRPRPRPLGFPRP — higher, -0.146
- RRIRFRPPRLPRPRPRPACQPRP — higher, -0.0497
- RRIRNRPPRLPRPRPRPIAQPRP — higher, -0.00164
- RRIRSRPPRLPRPRPRPICGPRP — higher, -0.056
- RRIRQRPPRLPRPRPRPNKPPRP — higher, -0.195
- RRIRIRPPRLPRPRPRPWCTPRP — lower, -0.757
- RRIRIRPPRLPRPRPRPEEKPRP — higher, 0.461
- RRIRDRPPRLPRPRPRPHCPPRP — higher, -0.191
- RRIRLRPPRLPRPRPRPWDRPRP — higher, -0.0145
- RRIRPRPPRLPRPRPRPKAVPRP — higher, 0.0993
- RRIRMRPPRLPRPRPRPYHKPRP — higher, -0.0503
- RRIRLRPPRLPRPRPRPHWYPRP — higher, -0.128
- RRIRDRPPRLPRPRPRPHDLPRP — higher, -0.0733
- RRIRNRPPRLPRPRPRPQHDPRP — within 0.2 log units, -0.25
- RRIRERPPRLPRPRPRPRMAPRP — higher, 0.2
- RRIRKRPPRLPRPRPRPGSSPRP — higher, -0.0653
- RRIRNRPPRLPRPRPRPSAHPRP — higher, -0.0549
- RRIRLRPPRLPRPRPRPFINPRP — within 0.2 log units, -0.572
- RRIRDRPPRLPRPRPRPAVLPRP — higher, -0.014
- RRIRKRPPRLPRPRPRPNMHPRP — higher, 0.19
- RRIRDRPPRLPRPRPRPGAHPRP — higher, 0.651
- RRIRFRPPRLPRPRPRPDAQPRP — higher, 0.483
- RRIRARPPRLPRPRPRPWHQPRP — higher, 0.0524
- RRIRGRPPRLPRPRPRPFWQPRP — higher, 0.467
- RRIRNRPPRLPRPRPRPDYCPRP — higher, -0.00677
- RRIRFRPPRLPRPRPRPAKFPRP — within 0.2 log units, -0.265
- RRIRGRPPRLPRPRPRPYSRPRP — higher, -0.024
- RRIRKRPPRLPRPRPRPGREPRP — higher, 0.913
- RRIRPRPPRLPRPRPRPECVPRP — higher, 0.541
- RRIRARPPRLPRPRPRPISIPRP — within 0.2 log units, -0.439
- RRIRWRPPRLPRPRPRPEVRPRP — higher, 0.495
- RRIRARPPRLPRPRPRPPSSPRP — higher, 0.342
- RRIRWRPPRLPRPRPRPFEQPRP — higher, 0.0143
- RRIRPRPPRLPRPRPRPVLPPRP — higher, 0.11
- RRIRSRPPRLPRPRPRPPHTPRP — higher, 0.159
- RRIRYRPPRLPRPRPRPTCVPRP — within 0.2 log units, -0.503
- RRIRDRPPRLPRPRPRPYFWPRP — higher, -0.0487
- RRIRSRPPRLPRPRPRPIFGPRP — higher, 0.0746
- RRIRGRPPRLPRPRPRPHWQPRP — higher, 0.258
- RRIRSRPPRLPRPRPRPMEHPRP — higher, -0.122
- RRIRMRPPRLPRPRPRPHPLPRP — higher, 0.37
- RRIRWRPPRLPRPRPRPWLSPRP — higher, -0.0459
- RRIRCRPPRLPRPRPRPELFPRP — higher, 0.676
- RRIRARPPRLPRPRPRPGFQPRP — higher, 0.092
- RRIRDRPPRLPRPRPRPMHCPRP — higher, -0.00112
- RRIRARPPRLPRPRPRPQWRPRP — higher, 0.218
- RRIRCRPPRLPRPRPRPSRYPRP — within 0.2 log units, -0.285
- RRIRYRPPRLPRPRPRPGKEPRP — higher, 0.0011
- RRIRCRPPRLPRPRPRPDKSPRP — lower, -1.38
- RRIRCRPPRLPRPRPRPATEPRP — higher, 0.309
- RRIRKRPPRLPRPRPRPYQAPRP — higher, 0.134
- RRIRERPPRLPRPRPRPGNSPRP — higher, -0.115
- RRIRPRPPRLPRPRPRPREMPRP — higher, 0.319
- RRIRMRPPRLPRPRPRPTTTPRP — higher, 0.276
- RRIRERPPRLPRPRPRPFSVPRP — higher, -0.213
- RRIRFRPPRLPRPRPRPHIIPRP — lower, -0.879
- RRIRVRPPRLPRPRPRPEYIPRP — higher, -0.00622
- RRIRERPPRLPRPRPRPHYTPRP — within 0.2 log units, -0.615
- RRIRTRPPRLPRPRPRPAFRPRP — higher, -0.125
- RRIRTRPPRLPRPRPRPMQFPRP — higher, -0.0258
- RRIRGRPPRLPRPRPRPKGTPRP — higher, 0.294
- RRIRTRPPRLPRPRPRPDKPPRP — higher, 0.0877
- RRIRARPPRLPRPRPRPGFAPRP — higher, 0.57
- RRIRERPPRLPRPRPRPADNPRP — higher, -0.03
- RRIRGRPPRLPRPRPRPYLHPRP — within 0.2 log units, -0.385
- RRIRSRPPRLPRPRPRPAFNPRP — higher, 0.0949
- RRIRGRPPRLPRPRPRPRKGPRP — higher, 0.148
- RRIRIRPPRLPRPRPRPPHDPRP — higher, -0.0948
- RRIRPRPPRLPRPRPRPCFWPRP — higher, 0.179
- RRIRNRPPRLPRPRPRPHRAPRP — higher, 0.264
- RRIRERPPRLPRPRPRPGFEPRP — higher, -0.1
- RRIRARPPRLPRPRPRPERNPRP — higher, 0.848
- RRIRVRPPRLPRPRPRPAYFPRP — within 0.2 log units, -0.325
- RRIRPRPPRLPRPRPRPRNWPRP — higher, 0.195
- RRIRERPPRLPRPRPRPHWAPRP — higher, 0.225
- RRIRARPPRLPRPRPRPAQVPRP — higher, 0.617
- RRIRKRPPRLPRPRPRPMIMPRP — higher, -0.0451
- RRIRERPPRLPRPRPRPHMNPRP — within 0.2 log units, -0.337
- RRIRARPPRLPRPRPRPKSIPRP — higher, -0.078
- RRIRCRPPRLPRPRPRPGPSPRP — higher, 0.17
- RRIRPRPPRLPRPRPRPRKQPRP — higher, 0.0406
- RRIRIRPPRLPRPRPRPKIRPRP — higher, -0.0911
- RRIRTRPPRLPRPRPRPLCKPRP — within 0.2 log units, -0.257
- RRIRWRPPRLPRPRPRPKENPRP — higher, 0.373
- RRIRSRPPRLPRPRPRPLMHPRP — higher, -0.142
- RRIRGRPPRLPRPRPRPTKWPRP — higher, 0.262
- RRIRQRPPRLPRPRPRPCLFPRP — within 0.2 log units, -0.268
- RRIRWRPPRLPRPRPRPNRVPRP — higher, -0.0395
